This passage reports Kd, koff and kon results from patent US7125658B2, “Small protein that interacts with a ribonucleotide reductase subunit and uses thereof” (The Trustees of Columbia University in the City of New York, priority 1998, dated 2006).

In assay [1] the target is T1, Recombinant yeast Rnr1 protein (large subunit of ribonucleotide reductase) (yeast (Saccharomyces cerevisiae), UniProt P21524 1-888).
T1 construct: It is in monomer/dimer/tetramer equilibrium depending on dTTP; also called yeast R1 protein
T1 sequence (looked up): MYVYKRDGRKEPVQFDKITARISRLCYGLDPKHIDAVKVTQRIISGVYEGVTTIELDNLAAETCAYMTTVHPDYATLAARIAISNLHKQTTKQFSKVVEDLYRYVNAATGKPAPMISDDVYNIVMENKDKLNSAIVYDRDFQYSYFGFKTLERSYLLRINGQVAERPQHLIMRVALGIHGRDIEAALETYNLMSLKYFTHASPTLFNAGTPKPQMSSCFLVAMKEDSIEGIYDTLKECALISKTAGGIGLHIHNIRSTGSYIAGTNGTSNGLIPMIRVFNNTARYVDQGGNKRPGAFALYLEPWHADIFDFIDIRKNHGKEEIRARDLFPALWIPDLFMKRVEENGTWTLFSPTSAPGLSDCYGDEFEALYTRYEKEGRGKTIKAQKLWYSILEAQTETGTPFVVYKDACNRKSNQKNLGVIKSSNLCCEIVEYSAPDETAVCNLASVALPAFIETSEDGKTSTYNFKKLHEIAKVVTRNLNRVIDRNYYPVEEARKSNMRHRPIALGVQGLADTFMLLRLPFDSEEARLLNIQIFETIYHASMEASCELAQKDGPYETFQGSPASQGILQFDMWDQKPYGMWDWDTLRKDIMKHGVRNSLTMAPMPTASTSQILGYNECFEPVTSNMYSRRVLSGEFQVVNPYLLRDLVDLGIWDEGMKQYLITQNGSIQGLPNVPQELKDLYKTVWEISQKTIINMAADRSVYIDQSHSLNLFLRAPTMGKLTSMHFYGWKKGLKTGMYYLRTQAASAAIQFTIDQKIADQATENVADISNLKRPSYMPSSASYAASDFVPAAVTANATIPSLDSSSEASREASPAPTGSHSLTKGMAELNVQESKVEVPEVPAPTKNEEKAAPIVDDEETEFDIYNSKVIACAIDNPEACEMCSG
Kind of assay: BIAcore SPR, Sml1p immobilized, Rnr1p injected (0.1-2.5 µM); equilibrium response fitted to one site binding model; equilibrium response fit (GraphPad Prism), directly determined. The procedure: (§1) In this figure, the bulk effect response of around 60 RU has been subtracted.
(§2) BIAcore biosensor analysis. The interaction between Sml1p and either yeast Rnr1p or mouse R1 protein was studied by biosensor analysis using the BIAcore method (Biacore AB). The Sml1 protein was prepared in 10 mM sodium acetate, pH 5.2, at a concentration of 0.44 mg/ml; it was then immobilized on the dextran layer of the sensor chip as described previously for the mouse R2 protein (17). The ligand proteins were equilibrated with running buffer (10 mM Hepes-KOH, pH 7.4, 200 mM potassium acetate, 1 mM EDTA, 5 mM magnesium acetate and 0.05% Surfactant P20 (BIAcore). The interactions were studied at a constant temperature of 22° C. and a constant flow of 5 μl/min. Kinetics for the interaction of Sml1p with yeast Rnr1p was determined by allowing the immobilized Sml1p to interact with increasing concentrations of Rnr1p (18). The resonance unit (RU) is proportional to the mass, and 1 RU corresponds to a surface concentration of 1 pg of protein/mm² of the 100 nm thick dextran layer (19).
(§3) In control experiments, where the same series of Rnr1p solutions passed a sensor chip without immobilized Sml1p, a "bulk effect" gave a response of only about 60 RU. […] Calculating the equilibrium dissociation constant from these rate constants gave a K_0 of about 0.25 µM, which is close to the directly determined K_0.

The target in assay [2] is T1, Recombinant yeast Rnr1 protein (large …). The experiment in a line: BIAcore SPR, BIAevaluation software, lower curves of FIG. 12A; kinetic fit (BIAevaluation), lower curves of FIG. 12A. The procedure:
as §1, §2, §3

B1: Recombinant yeast Sml1 protein (other)
chain: MQNSQDYFYAQNRCQQQQAPSTLRTVTMAEFRRVPLPPMAEVPMLSTQNSMGSSASASASSLEMWEKDLEERLNSIDHDMNNNKFGSGELKSMFNQGKVEEMDF
notes: Immobilized on the BIAcore chip in the biosensor experiments; also called YML058W product
For the molecule B1, the Kd (commonly the equilibrium constant for the complex coming apart) in assay [1] worked out at 410 nM. Also, in assay [2], the dissociation rate constant (koff) (commonly a measure of how fast the partners let go of each other) came out at 0.04 s⁻¹ and the kon (commonly the second-order rate constant of association) was approximately 153000 M⁻¹ s⁻¹.
